Experimental findings from publication PMC8980056, “RAGE-TXNIP axis drives inflammation in Alzheimer’s by targeting Aβ to mitochondria in microglia” (Cell Death & Disease, 2022) are described below.

Data set [1] concerns the molecule itself. Kind of data set: native gel or EMSA; western blot of native gel of Drp1 tetramer in LPS-primed primary microglia, without and with 4 h of Aβ dimers. On the technique in general: Mobility shift assays separate free from complexed probe on a gel.
Data set [2] concerns the molecule itself. The experiment in a line: native gel or EMSA; western blot of native gel of DRP1 tetramer in hippocampus of wt and 5xFAD mice (also with siTXNIP).

B1: Dynamin-Related Protein 1 (Drp1), endogenous in LPS-primed primary microglia (natural protein, UniProt Q8K1M6 1-736, looked up)
chain: MEALIPVINKLQDVFNTVGADIIQLPQIVVVGTQSSGKSSVLESLVGRDLLPRGTGVVTRRPLILQLVHVSPEDKRKTTGEENGVEAEEWGKFLHTKNKLYTDFDEIRQEIENETERISGNNKGVSPEPIHLKVFSPNVVNLTLVDLPGMTKVPVGDQPKDIELQIRELILRFISNPNSIILAVTAANTDMATSEALKISREVDPDGRRTLAVITKLDLMDAGTDAMDVLMGRVIPVKLGIIGVVNRSQLDINNKKSVTDSIRDEYAFLQKKYPSLANRNGTKYLARTLNRLLMHHIRDCLPELKTRINVLAAQYQSLLNSYGEPVDDKSATLLQLITKFATEYCNTIEGTAKYIETSELCGGARICYIFHETFGRTLESVDPLGGLNTIDILTAIRNATGPRPALFVPEVSFELLVKRQIKRLEEPSLRCVELVHEEMQRIIQHCSNYSTQELLRFPKLHDAIVEVVTCLLRKRLPVTNEMVHNLVAIELAYINTKHPDFADACGLMNNNIEEQRRNRLARELPSAGSRDKSSKVPSALAPASQEPPPAASAEADGKLIQDNRRETKNVPSAGGGIGDGGQEPTTGNWRGMLKTSKAEELLAEEKSKPIPIMPASPQKGHAVNLLDVPVPVARKLSAREQRDCEVIERLIKSYFLIVRKNIQDSVPKAVMHFLVNHVKDTLQSELVGQLYKSSLLDDLLTESEDMAQRRKEAADMLKALQGASQIIAEIRETHLW
notes: Dynamin-Related Protein 1 (Drp1), endogenous in primary microglia; Precipitated with an anti-Drp1 antibody; seen as tetramer on a native gel; Mouse is only surmised for the primary microglia; see the supplementary methods; source: endogenous, LPS-primed primary microglia lysate
Turning to B1, in data set [1], the “stoichiometry N” value stood at 4.

B2: Dynamin-Related Protein 1 (Drp1), endogenous in mouse hippocampus (natural protein, UniProt Q8K1M6 1-736, looked up)
chain: B1 chain
notes: Dynamin-Related Protein 1 (Drp1), mouse, endogenous in the hippocampus of 5xFAD mice; Tetramer seen on a native gel; source: endogenous, hippocampus of 5xFAD mice
B2: in data set [2], the “stoichiometry N” value is 4.

In general, stoichiometry N refers to the number of molecules, sites or subunits per partner or assembly.
